Experimental data reported in patent publication US20200063132A1.

Target: human Mannose 6-Phosphate Receptor (M6PR, also known as IGF2R), endogenous on HUVEC and hCMEC/D3 cells (human) (UniProt P11717)
Experiment: cell-based or functional assay

human Mannose 6-Phosphate Receptor (M6PR, also known as IGF2R), endogenous on HUVEC and hCMEC/D3 cells (human), sequence (P11717 41-2491): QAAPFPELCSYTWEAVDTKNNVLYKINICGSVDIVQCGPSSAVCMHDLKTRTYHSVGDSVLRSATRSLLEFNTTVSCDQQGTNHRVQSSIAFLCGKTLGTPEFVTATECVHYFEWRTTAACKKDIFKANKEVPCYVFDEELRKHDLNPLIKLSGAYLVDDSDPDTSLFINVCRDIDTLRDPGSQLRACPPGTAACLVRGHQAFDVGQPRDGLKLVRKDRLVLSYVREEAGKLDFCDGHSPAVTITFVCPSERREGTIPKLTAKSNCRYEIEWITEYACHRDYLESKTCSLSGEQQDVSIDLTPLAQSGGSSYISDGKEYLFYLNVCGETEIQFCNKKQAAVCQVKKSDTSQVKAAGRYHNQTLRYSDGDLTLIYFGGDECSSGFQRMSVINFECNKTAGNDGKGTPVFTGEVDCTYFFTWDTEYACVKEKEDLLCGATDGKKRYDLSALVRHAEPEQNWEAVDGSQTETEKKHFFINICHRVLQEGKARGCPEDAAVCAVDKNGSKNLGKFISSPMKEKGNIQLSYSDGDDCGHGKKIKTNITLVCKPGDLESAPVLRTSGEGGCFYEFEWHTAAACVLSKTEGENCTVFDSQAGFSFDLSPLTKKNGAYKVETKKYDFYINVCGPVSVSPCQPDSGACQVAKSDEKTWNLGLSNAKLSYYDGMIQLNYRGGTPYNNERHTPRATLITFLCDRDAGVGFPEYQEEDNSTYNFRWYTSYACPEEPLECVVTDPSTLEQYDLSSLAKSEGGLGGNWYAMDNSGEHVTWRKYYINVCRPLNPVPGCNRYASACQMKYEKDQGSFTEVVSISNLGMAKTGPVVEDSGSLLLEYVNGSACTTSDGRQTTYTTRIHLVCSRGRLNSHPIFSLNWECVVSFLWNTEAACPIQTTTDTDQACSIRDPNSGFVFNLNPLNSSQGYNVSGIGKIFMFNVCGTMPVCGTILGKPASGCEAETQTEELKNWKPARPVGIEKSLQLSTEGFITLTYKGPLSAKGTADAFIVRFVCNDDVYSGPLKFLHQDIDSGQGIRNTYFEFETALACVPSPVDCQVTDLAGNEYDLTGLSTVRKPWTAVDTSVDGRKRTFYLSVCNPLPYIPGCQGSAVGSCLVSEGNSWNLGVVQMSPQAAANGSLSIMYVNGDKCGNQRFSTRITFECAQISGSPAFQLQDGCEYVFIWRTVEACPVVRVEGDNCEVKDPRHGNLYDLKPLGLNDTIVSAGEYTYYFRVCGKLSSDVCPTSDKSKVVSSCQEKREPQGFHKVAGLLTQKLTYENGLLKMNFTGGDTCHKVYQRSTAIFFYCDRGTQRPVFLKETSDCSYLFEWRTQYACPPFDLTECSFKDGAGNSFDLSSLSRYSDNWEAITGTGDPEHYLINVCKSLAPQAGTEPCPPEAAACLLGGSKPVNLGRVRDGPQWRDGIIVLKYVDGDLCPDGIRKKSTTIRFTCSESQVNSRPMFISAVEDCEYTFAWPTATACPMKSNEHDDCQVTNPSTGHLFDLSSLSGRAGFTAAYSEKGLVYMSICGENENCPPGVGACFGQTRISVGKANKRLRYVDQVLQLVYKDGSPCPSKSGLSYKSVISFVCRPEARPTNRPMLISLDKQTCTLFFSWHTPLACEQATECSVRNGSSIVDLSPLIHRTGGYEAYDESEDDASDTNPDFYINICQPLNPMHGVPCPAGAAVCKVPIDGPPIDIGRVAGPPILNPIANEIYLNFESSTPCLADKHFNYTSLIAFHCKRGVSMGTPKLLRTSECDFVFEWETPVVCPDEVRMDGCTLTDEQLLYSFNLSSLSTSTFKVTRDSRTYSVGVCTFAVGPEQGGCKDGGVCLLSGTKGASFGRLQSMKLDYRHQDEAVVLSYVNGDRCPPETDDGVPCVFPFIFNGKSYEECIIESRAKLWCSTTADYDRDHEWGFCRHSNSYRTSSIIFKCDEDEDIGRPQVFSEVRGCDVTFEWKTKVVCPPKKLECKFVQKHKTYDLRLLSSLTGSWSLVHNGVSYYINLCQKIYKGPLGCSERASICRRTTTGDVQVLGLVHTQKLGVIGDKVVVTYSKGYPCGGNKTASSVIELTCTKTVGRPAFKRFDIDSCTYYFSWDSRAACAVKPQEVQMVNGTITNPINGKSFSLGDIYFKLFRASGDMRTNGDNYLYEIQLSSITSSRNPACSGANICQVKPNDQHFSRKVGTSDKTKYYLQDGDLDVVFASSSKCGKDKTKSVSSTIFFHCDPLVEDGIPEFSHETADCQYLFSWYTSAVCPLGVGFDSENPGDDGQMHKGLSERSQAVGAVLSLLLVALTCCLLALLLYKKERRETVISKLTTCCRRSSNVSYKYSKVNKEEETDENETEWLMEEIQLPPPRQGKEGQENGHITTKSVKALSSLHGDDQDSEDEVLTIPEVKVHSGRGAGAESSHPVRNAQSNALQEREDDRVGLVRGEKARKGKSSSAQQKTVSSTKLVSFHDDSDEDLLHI

IC50 of the M6P inhibitor (mannose 6-phosphate, a small molecule) on uptake of IDUA-myc by HUVEC, 1 h, intracellular IDUA activity: 348 µM | IC50 of the M6P inhibitor (mannose 6-phosphate, a small molecule) on uptake of IDUA-myc by hCMEC/D3 cells, 1 h, intracellular IDUA activity: 57.2 µM
Substance: IDUA-myc fusion protein (human α-L-iduronidase with myc tag, from conditioned medium of HEK 293-based cells stably overexpressing human IDUA cDNA) (from UniProt P35475 28-653) (enzyme)
